Measurements taken from patent publication US9498540B2, “Cell proliferation inhibitors and conjugates thereof” (NOVARTIS AG, priority 2013, dated 2016).
“And” between values parts separate entries of the source, which are not always exact repeats. Equal values may be shown once.

How the values were obtained:
[1] = Aggregation of immunoconjugates by analytical size exclusion chromatography; type: physicochemical; settings: conjugate with trastuzumab (TBS); Superdex 200 5/150 GL run in PBS
Protocol: Aggregation was measured by analytical size exclusion chromatography (Superdex 200 5/150 GL run in PBS). It was observed that the extent of aggregation depends on the Linker-Payload and the DAR. […] Table 4 also indicates whether the linking group for each conjugate is stable or cleavable.

[2] = Average drug loading (DAR, drug to antibody ratio) from LC/MS of reduced, deglycosylated conjugates; settings: conjugate with trastuzumab (TBS); average number of payload molecules per antibody
Source text: The immunoconjugates prepared as described above were characterized by LC/MS, as illustrated in FIG. 1 for one immunoconjugate. […] The conjugates were characterized in terms of average drug loading for a sample (DAR, drug to antibody ratio) and aggregation (expressed in %).
The DAR value is extrapolated from LC-MS data for reduced and deglycosylated samples. […] HPLC separates the antibody into light and heavy chains, and separates the heavy chain (HC) and light chain (LC) according to the number of Linker-Payload groups per chain. Mass spectral data enables identification of the component species in the mixture, e.g., LC, LC+1, LC+2, HC, HC+1, HC+2, etc. From the average loading on the LC and HC chains, the average drug to antibody ratio (DAR) can be calculated for an ADC (see FIG. 1B). The DAR for a given conjugate sample represents the average number of drug (payload) molecules attached to a tetrameric antibody containing two light chains and two heavy chains.

Structure (SMILES)	Aggregation % [1]	DAR [2]
C[C@H](O)C(=O)N(C[C@@H]1CNC[C@H]1O)[C@@H](c1nc(-c2cc(F)ccc2F)cn1Cc1ccccc1)C1CCOCC1 [Compound 48]	63.8% and 35.3%	4.4 and 5.2
CC(C)(C)[C@H](c1nc(-c2cc(F)ccc2F)nn1Cc1ccccc1)N(CCCN)C(=O)CO [Compound 50]	40%	2.8
CC(C)(C)[C@H](c1nc(-c2cc(F)ccc2F)cn1Cc1ccccc1)N(CC[C@@H](N)CF)C(=O)c1cccnc1 [Compound 51]	56.5%	5.6
C[C@@H]1CN(C(=O)N(CC[C@H](N)CF)[C@@H](c2nc(-c3cc(F)cc(F)c3)nn2Cc2ccccc2)C(C)(C)C)C[C@H](C)O1 [Compound 52]	47.4%	5.2
C[C@H](O)C(=O)N(C[C@H]1CNC[C@H]1F)[C@@H](c1nc(-c2cc(F)ccc2F)cn1Cc1ccccc1)C1CCOCC1 [Compound 53]	25.7%	2.7
COC(C)(C)[C@H](c1nc(-c2cc(F)ccc2F)cn1Cc1cccc(F)c1)N(C[C@@H]1CNC[C@@H]1F)C(=O)[C@H](C)O [Compound 54]	2.5%	3.1
CC(C)(C)[C@H](c1nc(-c2cc(F)ccc2F)cn1Cc1ccccc1)N(CC[C@H](N)CF)C(=O)CO[C@@H]1O[C@H](C(=O)O)[C@@H](O)[C@H](O)[C@H]1O [Compound 55]	11.5%	3.8
O=C(N1C[C@@H](O)[C@@H](O)C1)N(C[C@@H]1CNC[C@@H]1F)[C@@H](c1nc(-c2cc(F)ccc2F)cn1Cc1ccccc1)C1CCOCC1 [Compound 56]	45.1%	4.1
NCCCCCCSCC(=O)N(C[C@@H]1CNC[C@@H]1F)[C@@H](c1nc(-c2cc(F)ccc2F)cn1Cc1ccccc1)C1CCOCC1 [Compound 57]	57%	5
O=C(NCCO)N(C[C@@H]1CNC[C@@H]1F)[C@@H](c1nc(-c2cc(F)ccc2F)cn1Cc1ccccc1)C1CCOCC1 [Compound 58]	59.4%	5.3
COC(C)(C)[C@H](c1nc(-c2cc(Cl)ccc2F)cn1Cc1cccc(F)c1)N(C[C@@H]1CN[C@H](CF)C1)C(=O)c1cc(C)nn1C [Compound 59]	71%	5.2
COC[C@@H](N)CCN(C(=O)[C@H](C)O)[C@@H](c1nc(-c2cc(F)ccc2F)cn1Cc1ccccc1)C(C)(C)C [Compound 60]	71.7%	6.4
CC(C)(C)[C@H](c1nc(-c2cc(F)ccc2F)nn1Cc1ccccc1)N(CCCN)C(=O)N1CCOCC1 [Compound 61]	46.1%	2
C[C@H](O)C(=O)N(CC[C@H](N)CF)[C@@H](c1nc(-c2cc(F)cc(F)c2F)cn1Cc1ccccc1)C(C)(C)C [Compound 62]	48.7%	2
CC(C)(C)[C@H](c1nc(-c2cc(F)ccc2F)cn1Cc1ccccc1)N(CC[C@H]1COCCN1)C(=O)N1CCOCC1 [Compound 63]	53.2%	4
CC(C)(C)[C@H](c1nc(-c2cc(F)ccc2F)nn1Cc1ccccc1)N(CCCN)C(=O)c1cccnc1 [Compound 64]	49.3%	2.9
O=C(c1ccccn1)N(C[C@@H]1CN[C@H](CF)C1)[C@@H](c1nc(-c2cc(F)ccc2F)cn1Cc1ccccc1)C1CCOCC1 [Compound 65]	11.4%	3.2
C[C@H](O)C(=O)N(C[C@@H]1CNC[C@@H]1F)[C@@H](c1nc(-c2cc(F)ccc2F)cn1Cc1cccc(N)n1)C1CCOCC1 [Compound 66]	64.5%	3.6
CC(C)(C)[C@H](c1nc(-c2cc(F)ccc2F)cn1Cc1cccc(F)c1)N(C[C@@H]1CNC[C@@H]1F)C(=O)CCS [Compound 67]	63.2%	3.4
O=C(NC[C@@H](O)CO)N(C[C@@H]1CNC[C@@H]1F)[C@@H](c1nc(-c2cc(F)ccc2F)cn1Cc1ccccc1)C1CCOCC1 [Compound 68]	62.6%	4.6
O=C([C@H]1CNCCO1)N(C[C@@H]1CNC[C@@H]1F)[C@@H](c1nc(-c2cc(F)ccc2F)cn1Cc1ccccc1)C1CCOCC1 [Compound 69]	4.9%	6
O=C([C@@H]1CNCCO1)N(C[C@@H]1CNC[C@@H]1F)[C@@H](c1nc(-c2cc(F)ccc2F)cn1Cc1ccccc1)C1CCOCC1 [Compound 70]	16.9%	6.5
C[C@H](O)C(=O)N(CC[C@H](N)CF)[C@@H](c1nc(-c2cc(F)ccc2F)cn1Cc1ccccc1)C(C)(C)C [Compound 71]	2.6%	2.9
C[C@H](O)C(=O)N(C[C@@H]1CNC[C@@H]1F)[C@@H](c1nc(-c2cc(F)ccc2F)cn1Cc1ccccc1)C(C)(C)C [Compound 72]	45%	5.2
C[C@H](O)C(=O)N(CC[C@H](N)CF)[C@@H](c1nc(-c2cc(F)ccc2F)cn1Cc1cccc(F)c1)C(C)(C)C [Compound 73]	60%	4.5
O=C(NC[C@H](O)CO)N(C[C@@H]1CNC[C@@H]1F)[C@@H](c1nc(-c2cc(F)ccc2F)cn1Cc1ccccc1)C1CCOCC1 [Compound 74]	39.1%	3
CCOC(C)(C)[C@H](c1nc(-c2cc(F)ccc2F)cn1Cc1cccc(F)c1)N(C[C@@H]1CNC[C@@H]1F)C(=O)[C@H](C)O [Compound 75]	69.4%	2.9
CC(C)(C)[C@H](c1nc(-c2cc(F)ccc2F)cn1Cc1cccc(F)c1)N(C[C@@H]1CNC[C@@H]1F)C(=O)COCCN [Compound 76]	48.5%	3.1
